In US5624894A, “Brain-enhanced delivery of neuroactive peptides by sequential metabolism” (University of Florida, priority 1995, dated 1997):
Square brackets hold non-standard residues; d marks the D form. Ends that are not written are not given here.

What was measured:
[1] = Detection of peptide conjugates in rat brain tissue and blood by electrospray ionization MS after i.v. compound (A); assay type: in vivo; conditions: 15 minutes after i.v. compound (A) for [D-Ala2]-Leu-enkephalin, 20 mg/kg, rats; estimated
Text: This approach has been evaluated by using electrospray ionization mass spectrometry, which provides the specificity necessary to monitor the biotransformation processes that occur after delivery. In vivo distribution studies with rats as experimental models (described in detail below) have shown that, upon systemic administration, the modified peptide can partition by passive, nonsaturable transport into the brain which is inaccessible to the unmanipulated compound. At this first step, the modified peptide simply enters the brain because of its lipoidal nature. The targetor moiety, however, undergoes an enzyme-mediated oxidation analogous to the endogenous NAD(P)H.revreaction.NAD(P)^+ coenzyme associated with numerous oxidoreductases and cellular respiration. […]
Detection of the peptide conjugates in the brain tissue by electrospray ionization mass spectrometry was carried out after systemic administration of compound (A). […] The solvent was removed under a dry nitrogen stream, and the reconstituted (in 50% methanol plus 50% water containing 3% acetic acid) sample was analyzed by electrospray ionization mass spectrometry at 5 μl/minute flow rate. […] Quantification was based on comparing the peak intensity to that obtained from the brain sample of an untreated animal spiked with a known amount of compound (C).

[2] = tested on: brain peptidases (rat brain homogenate); assay: Incubation of targetor-peptide conjugate in rat brain homogenate; assay type: in vitro ADME; conditions: 30 nmol in 1 ml 20% rat brain homogenate, pH 7.4 Tris, 37° C., 0.5 and 2 hours
Experimental: Compound (C) (30 nmol) was added to one ml rat brain homogenate (20%, w/w, in pH 7.4 Tris buffer), and the mixture was incubated at 37° C. Aliquots (250 t l) were removed 0.5 and 2 hours after incubation, and electrospray ionization mass spectra were obtained after sample preparation identical to that described above. Proteolytic cleavages are identified by the m/z of the products, and the corresponding structures are shown in the Scheme.

[3] = Stability and water solubility observed during synthesis; assay type: physicochemical; conditions: reaction work-up
Experimental: In all cases before the N-alkylation step, the intermediates were purified by chromatography. In order to avoid side reactions, the N-methylations were performed at room temperature (20°-25° C.) with a slight excess of alkylating agent. The reductions with sodium dithionite were accomplished by cooling at 0°-5° C. in oxygen-free conditions at a pH of approximately 7. The quaternary salts are fairly stable when isolated, but the dihydropyridine derivatives are easily oxidized or hydroxylated and in acid conditions react readily with water.
Trigonellyl-Ala-Tyr-Arg-cholesteryl ester methylsulfate (0.09 g, […]) (30) was dissolved in 20 ml of H2 O, then NaHCO3 (0.05 g, […]) and Na2 S2 O4 (0.07 g, 0.04 mmol) were added in small portions while stirring at 0° C. The reaction vessel was stoppered under nitrogen and allowed to stir for 1.5 hours at 0° C. […] The extraction was repeated 3 times, the organic layers were combined and the solvent was removed in vacuo, to afford 0.056 g of compound (31), yield 62.2%.

| Compound | level in brain tissue [1] | processing in rat brain homogenate (in words) [2] | solubility in water (in words) [3] |
| --- | --- | --- | --- |
| Compound (C): locked-in targetor-peptide conjugate (m/z 760) of [D-Ala2]-Leu-enkephalin, formed from compound (B) by cleavage of the cholesteryl ester ({N‑methylnicotinoyl}-AY[dA]GFL; not fully specified) | 500-700 picomole/g tissue | processed by the brain peptidases similarly to the unmanipulated compound | – |
| CC(C)CCC[C@@H](C)[C@H]1CC[C@H]2[C@@H]3CC=C4C[C@@H](OC(=O)[C@H](CCCNC(=N)N)NC(=O)[C@H](Cc5ccc(O)cc5)NC(=O)[C@H](C)NC(=O)C5=CN(C)C=CC5)CC[C@]4(C)[C@H]3CC[C@]12C [(31), 1,4-Dihydrotrigonellyl-Ala-Tyr-Arg-Cholesteryl Ester] | – | – | not soluble in water |
